Results published in patent US20220220224A1 (Hoffmann-La Roche, published 2022).
Changes are numbered by the printed parent chain.

Key:
[1] = target: T1, recombinant biotinylated monomeric Fc fusion of murine Folate Receptor 1 (mu FolR1 ECD-AcTev-Fcknob-Avitag … (murine, UniProt P0DOX5 223-449 = IgG part, biotin on the C-terminal Avi tag)); test: SPR ProteOn, Fab analyte on immobilized antigen-Fc
T1 construct: also called muFolR1-Fc; murine FolR1
Protocol: Immobilization of antigens (ligand): Recombinant antigens were diluted with PBST (10 mM phosphate, 150 mM sodium chloride pH 7.4, 0.005% Tween 20) to 10 μg/ml, then injected at 30 μl/minute in vertical orientation. Injection of analytes: For ‘one-shot kinetics’ measurements, injection direction was changed to horizontal orientation, two-fold dilution series of purified Fab (varying concentration ranges) were injected simultaneously along separate channels 1-5, with association times of 150 or 200 s, and dissociation times of 200 or 600 s, respectively. Buffer (PBST) was injected along the sixth channel to provide an “in-line” blank for referencing. Association rate constants (kₒₙ) and dissociation rate constants (koff) were calculated using a simple one-to-one Langmuir binding model in ProteOn Manager v3.1 software by simultaneously fitting the association and dissociation sensorgrams. The equilibrium dissociation constant (KD) was calculated as the ratio koff/kₒₙ.

[2] = target: T2, recombinant biotinylated monomeric Fc fusion of cynomolgus Folate Receptor 1 (cy FolR1 ECD-AcTev-Fcknob-Avi … (cynomolgus, UniProt P0DOX5 223-449 = IgG part, biotin on the C-terminal Avi tag)); test: SPR Biacore, affinity (monovalent), antibody captured via anti-Fab
T2 construct: also called cyFolR1-Fc; cyno FolR1
Protocol: (§1) Binding of FolR1 binders as IgG or in the T-cell bispecific format to different recombinant folate receptors (human FolR1, 2 and 3, murine FolR1 and cynomolgus FolR1; all as Fc fusions) was assessed by surface plasmon resonance (SPR). All SPR experiments were performed on a Biacore T200 at 25° C. with HBS-EP as running buffer (0.01 M HEPES pH 7.4, 0.15 M NaCl, 3 mM EDTA, 0.005% Surfactant P20, Biacore, Freiburg/Germany).
For affinity measurement, direct coupling of around 6000-7000 resonance units (RU) of the anti-human Fab specific antibody (Fab capture kit, GE Healthcare) was performed on a CM5 chip at pH 5.0 using the standard amine coupling kit (GE Healthcare). Anti-FolR1 IgGs or T cell bispecifics were captured at 20 nM with a flow rate of 10 μl/min for 20 or 40 sec, the reference flow cell was left without capture. Dilution series (6.17 to 500 nM or 12.35 to 3000 nM) of human or cyno Folate Receptor 1 Fc fusion were passed on all flow cells at 30 μl/min for 120 or 240 sec to record the association phase. The dissociation phase was monitored for 240 s and triggered by switching from the sample solution to HBS-EP. The chip surface was regenerated after every cycle using a double injection of 60 sec 10 mM Glycine-HCl pH 2.1 or pH 1.5. Bulk refractive index differences were corrected for by subtracting the response obtained on the reference flow cell 1. The affinity constants for the interactions were derived from the rate constants by fitting to a 1:1 Langmuir binding using the Bia Evaluation software (GE Healthcare).

[3] = target: T2, recombinant biotinylated monomeric Fc …; test: SPR Biacore, avidity (bivalent, apparent KD), antigen-Fc on SA chip
Protocol: as §1
Recombinant biotinylated monomeric Fc fusions of human, cynomolgus and murine Folate Receptor 1 (FolR1-Fc) were directly coupled on a SA chip using the standard coupling instruction (Biacore, Freiburg/Germany). The immobilization level was about 300-400 RU. The anti-FolR1 IgGs or T cell bispecifics were passed at a concentration range from 2.1 to 500 nM with a flow of 30 μL/minutes through the flow cells over 180 seconds. The dissociation was monitored for 600 seconds. Bulk refractive index differences were corrected for by subtracting the response obtained on reference flow cell immobilized with recombinant biotinylated IL2 receptor Fc fusion. […] The binding curves resulting from the bivalent binding of the IgGs or T cell bispecifics were approximated to a 1:1 Langmuir binding and fitted with that model (which is not correct, but gives an idea of the avidity). The apparent avidity constants for the interactions were derived from the rate constants of the fitting using the Bia Evaluation software (GE Healthcare).

[4] = target: T1, recombinant biotinylated monomeric Fc …; test: SPR ProteOn, Fab analyte on immobilized antigen-Fc; remark: listed apart in the source
Protocol: (§2) Immobilization of antigens (ligand): Recombinant antigens were diluted with PBST (10 mM phosphate, 150 mM sodium chloride pH 7.4, 0.005% Tween 20) to 10 μg/ml, then injected at 30 μl/minute in vertical orientation. Injection of analytes: For ‘one-shot kinetics’ measurements, injection direction was changed to horizontal orientation, two-fold dilution series of purified Fab (varying concentration ranges) were injected simultaneously along separate channels 1-5, with association times of 200 s, and dissociation times of 600 s. Buffer (PBST) was injected along the sixth channel to provide an “in-line” blank for referencing. Association rate constants (kₒₙ) and dissociation rate constants (koff) were calculated using a simple one-to-one Langmuir binding model in ProteOn Manager v3.1 software by simultaneously fitting the association and dissociation sensorgrams. The equilibrium dissociation constant (KD) was calculated as the ratio koff/kₒₙ.

[5] = target: T2, recombinant biotinylated monomeric Fc …; test: SPR ProteOn, Fab analyte on immobilized antigen-Fc
Protocol: as §2

[6] = target: T3, recombinant biotinylated monomeric Fc fusion of human Folate Receptor 1 (huFolR1 ECD-AcTev-Fcknob-Avi tag … (human, UniProt P0DOX5 223-449 = IgG part, biotin on the C-terminal Avi tag)); test: SPR ProteOn, Fab analyte on immobilized antigen-Fc
T3 construct: also called huFolR1-Fc; human FolR1-Fc
Protocol: as §2

[7] = target: T4, recombinant biotinylated monomeric Fc fusion of human Folate Receptor 3 (hu FolR3 ECD-AcTev-Fcknob-Avi tag … (human, UniProt P0DOX5 223-449 = IgG part, biotin on the C-terminal Avi tag)); test: SPR ProteOn, Fab analyte on immobilized antigen-Fc
T4 construct: also called FolR3-Fc
Protocol: as §2

[8] = target: T5, recombinant biotinylated monomeric Fc fusion of human Folate Receptor 2 (hu FolR2 ECD-AcTev-Fcknob-Avi tag … (human, UniProt P0DOX5 223-449 = IgG part, biotin on the C-terminal Avi tag)); test: SPR ProteOn, Fab analyte on immobilized antigen-Fc
T5 construct: also called FolR2-Fc
Protocol: as §2

[9] = target: T6, human FolR2 on transfected HEK cells (human, UniProt P14207 17-230); test: flow cytometry on transfected HEK cells
T6 construct: whole, on cells
T6 sequence (P14207 17-230): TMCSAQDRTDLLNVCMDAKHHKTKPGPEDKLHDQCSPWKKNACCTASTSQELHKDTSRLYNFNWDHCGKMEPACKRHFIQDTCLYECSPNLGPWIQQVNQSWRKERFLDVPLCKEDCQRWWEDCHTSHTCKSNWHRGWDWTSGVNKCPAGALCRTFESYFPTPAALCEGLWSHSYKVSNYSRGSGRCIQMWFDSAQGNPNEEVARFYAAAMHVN

[10] = target: T1, recombinant biotinylated monomeric Fc …; test: SPR Biacore, single injection on immobilized antigen-Fc
Protocol: as §1
(§3) First the anti-FolR1 IgGs were analyzed by single injections (Table 1) to characterize their crossreactivity (to human, murine and cyno FolR1) and specificity (to human FolR1, human FolR2, human FolR3). Recombinant biotinylated monomeric Fc fusions of human, cynomolgus and murine Folate Receptor 1 (FolR1-Fc) or human Folate Receptor 2 and 3 (FolR2-Fc, FolR3-Fc) were directly coupled on a SA chip using the standard coupling instruction (Biacore, Freiburg/Germany). The immobilization level was about 300-400 RU. The IgGs were injected for 60 seconds at a concentration of 500 nM.

[11] = target: T4, recombinant biotinylated monomeric Fc …; test: as above
Protocol: as §1, §3

[12] = target: T5, recombinant biotinylated monomeric Fc …; test: as above
Protocol: as §1, §3

B1: 5D9 Fab (Fab, V domains shown)
VH: QVQLVQSGAEVKKPGASVKVSCKASGYTFTSYYMHWVRQAPGQGLEWMGIINPSGGSTSYAQKFQGRVTMTRDTSTSTVYMELSSLRSEDTAVYYCARSYIDMDYWGQGTLVTVSS
VL: EIVLTQSPGTLSLSPGERATLSCRASQSVSSSYLAWYQQKPGQAPRLLIYGASSRATGIPDRFSGSGSGTDFTLTISRLEPEDFAVYYCQQDNWSPTFGQGTKVEIK
notes: bacterial Fab
- binding result [1]: no binding

B2: 6B6 Fab (Fab, V domains shown)
VH: B1 VH with I101V
VL: B1 VL with N93I
notes: bacterial Fab
- binding result [1]: no binding

B3: Farletuzumab (antibody, V domains shown)
VH: EVQLVESGGGVVQPGRSLRLSCSASGFTFSGYGLSWVRQAPGKGLEWVAMISSGGSYTYYADSVKGRFAISRDNAKNTLFLQMDSLRPEDTGVYFCARHGDDPAWFAYWGQGTPVTVSS
VL: DIQLTQSPSSLSASVGDRVTITCSVSSSISSNNLHWYQQKPGKAPKPWIYGTSNLASGVPSRFSGSGSGTDYTFTISSLQPEDIATYYCQQWSSYPYMYTFGQGTKVEIKR
- Kd [2]: 67.3 nM
- Kd [3]: 0.65 nM

B4: 15B6 Fab (Fab, V domains shown)
VH: QVQLVQSGAEVKKPGASVKVSCKASGYTFTSYYMHWVRQAPGQGLEWMGIINPSGGSTSYAQKFQGRVTMTRDTSTSTVYMELSSLRSEDTAVYYCARNYYIGIVPFDYWGQGTLVTVSS
VL: QAVVTQEPSLTVSPGGTVTLTCGSSTGAVTTSNYANWVQEKPGQAFRGLIGGTNKRAPGTPARFSGSLLGGKAALTLSGAQPEDEAEYYCALWYSNLWVFGGGTKLTVL
notes: bacterial Fab
- binding result [4]: no binding
- Kd [5]: 13.9 nM
- Kd [6]: 19.1 nM
- binding result [7]: no binding
- binding result [8]: no binding

B5: 21A5 Fab (Fab, V domains shown)
VH: not shown
VL: B4 VL
notes: bacterial Fab
- binding result [4]: no binding
- binding result [8]: no binding

B6: 16D5 IgG (antibody, V domains shown)
VH: not shown
VL: B4 VL
notes: human IgG1
- binding result [9]: no binding
- binding result [10]: no binding (tested: 500 nM)
- binding result [11]: no binding (tested: 500 nM)
- binding result [12]: no binding (tested: 500 nM)

B7: 16D5 Fab (Fab, V domains shown)
VH: not shown
VL: B4 VL
notes: bacterial Fab
- binding result [4]: no binding
- binding result [7]: no binding
- binding result [8]: no binding

B8: 21A5 IgG (antibody, V domains shown)
VH: not shown
VL: B4 VL
notes: human IgG1
- binding result [9]: no binding
- binding result [10]: no binding (tested: 500 nM)
- binding result [12]: no binding (tested: 500 nM)

B9: 16F12 Fab (Fab, V domains shown)
VH: B4 VH with Y100F, Y101T, I102V, G103L, I104R
VL: B4 VL
notes: bacterial Fab
- binding result [4]: no binding
- Kd [5]: 90.9 nM
- Kd [6]: 68 nM
- binding result [7]: no binding
- binding result [8]: no binding

B10: 21G8 Fab (Fab, V domains shown)
VH: not shown
VL: B4 VL
notes: bacterial Fab
- binding result [4]: no binding
